Consider ten molecules from patent publication US20140079691A1 (ANAPTYSBIO, published 2014).

In general, Kd refers to the concentration at which binding is half-saturated. Low readings indicate higher affinity, high ones lower affinity. In general, koff refers to the rate constant with which the complex falls apart. A word on the kon: it is a measure of how fast the partners come together. Read a low kon as slower complex formation.

Assay [1] concerns the target T1, MS2 bacteriophage coat protein (MS2 bacteriophage, UniProt P03612 2-130).
T1 sequence: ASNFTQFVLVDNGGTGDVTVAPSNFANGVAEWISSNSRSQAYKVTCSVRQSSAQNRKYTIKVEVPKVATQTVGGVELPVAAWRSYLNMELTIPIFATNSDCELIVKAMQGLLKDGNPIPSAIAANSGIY
As to the kind of experiment: SPR (Biacore), FIG. 2C. Background: In SPR one partner is held on a chip, and binding of the other changes the refractive index at the surface.

Assay [2] addresses T1, MS2 bacteriophage coat protein. As to the kind of experiment: SPR (Biacore T200), IgG captured on anti-human IgG Fc, MS2 antigen flowed over.
Experimental: (§1) Binding affinity measurements for the antibody variants were obtained by surface immobilization of antigen. Specifically, kinetic analysis was performed using a Biacore T200 (GE Healthcare, Waukesha, Wis.). […] For full-length IgGs, a capture assay was used to allow accurate assessment of antibody affinity. […] Surfaces were regenerated using 3 M MgCl₂. Association and dissociation kinetic values (kₐ and kd) were determined from a best fit of the data with the 1:1 Langmuir global fitting procedure to sensorgrams using the Biacore T200 Evaluation Software, version 1.0.
Assay [3] shares this target. As to the kind of experiment: SPR (Biacore), FIG. 7C.
For assay [4] the target is unchanged. As to the kind of experiment: SPR (Biacore).
Assay [5] has the same target. As to the kind of experiment: SPR (Biacore), FIG. 3D.
Assay [6] shares this target. As to the kind of experiment: SPR (Biacore), FIG. 2D.
Assay [7] shares this target. As to the kind of experiment: SPR (Biacore T200), MS2 immobilised on CM5 chip, scFv in solution.
Experimental: as §1

B1: APE443 (antibody, V domains shown)
VH: EVQLLESGGGLVQPGGSLRLSCAASGFTFSSYAMSWVRQAPGKGLEWVSTISTGGGYTYFPDSVKGRFTISRDNSKNTLYLQMNSLRAEDTAVYYCARQGDFGDWYFDVWGAGTTVTVSS
VL: DVVMTQSPLSLPVTLGQPASISCRSSQSLVHSNGNTYLHWFQQRPGQSPRRLIYKVSNRFSGVPDRFSGSGSGTDFTLKISRVEAEDVGVYYCSQSTHVPWTFGGGTKLEIK
notes: also called initial CDR-grafted antibody; initial grafted antibody
In assay [1], B1 had a Kd of 170 nM, a koff of 0.011 s⁻¹ and a kon of 68000 M⁻¹ s⁻¹. In addition, the Kd in assay [2] came to 84 nM.

B2: APE1027 (antibody, V domains shown)
VH: EVQLVESGGGLVQPGGSLILSCVASGFTFSSYAMSWVRQAPGKGLEWVCTISTGGGYTYSPDSVKGRFTCSRDNSKNTLYLQMNSLRAEDTAVYYCARQGDFGDWYFDVWGAGTTVTVSS
VL: DVVLTQSPLSLAVLLGQPASISCRSSESLVHTNGNTYLHWYQQRPGQSPRLLIYKVSNRFSGVPDRFSGSGSGTDFTLKISRVEAEDVGVYFCSQSTRVPWTFGGGTKLEIK
In the case of B2, in assay [3], the koff turned out to be 8.5e-05 s⁻¹ and the on-rate (kon) stood at 97000 M⁻¹ s⁻¹. The affinity in assay [2], expressed as Kd, was 0.88 nM.

B3: APE565 (antibody, V domains shown)
VH: EVQLLESGGGLVQPGGSLRLSCAASGFTFSSYAMSWVRQAPGKGLEWVCTISTGGGYTYFPDSVKGRFTCSRDNSKNTLYLQMNSLRAEDTAVYYCARQGDFGDWYFDVWGAGTTVTVSS
VL: DVVMTQSPLSLPVTLGQPASISCRSSQSLVHSNGNTYLHWYQQRPGQSPRLLIYKVSNRFSGVPDRFSGSGSGTDFTLKISRVEAEDVGVYFCSQSTHVPWTFGGGTKLEIK
As for B3, in assay [4], the “fold improvement in KD over APE556” value was found to be 4 fold. The same molecule gave a Kd in assay [2] of 7 nM.

B4: APE850 (antibody, V domains shown)
VH: EVQLLESGGGLVQPGGSLRLSCVASGFTFSSYAMSWVRQAPGKGLEWVSTISTGGGYTYSPDSVKGRFTISRDNSKNTLYLQMNSLRAEDTAVYYCARQGDFGDWYFDVWGAGTTVTVSS
VL: DVVMTQSPLSLPVTLGQPASISCRSSESLVHTNGNTYLHWYQQRPGQSPRLLIYKVSNRFSGVPDRFSGSGSGTDFTLKISRVEAEDVGVYFCSQSTRVPWTFGGGTKLEIK
With B4, in assay [4], the “fold improvement in KD over the initial grafted antibody (APE443)” value was 85 fold, the “fold improvement in ka over the initial grafted antibody (APE443)” value worked out at 12 fold and the “fold improvement in kd over the initial grafted antibody (APE443)” value stood at 7 fold. The Kd in assay [2] is 0.985 nM.

B5: APE849 (antibody, V domains shown)
VH: EVQLLESGGGLVQPGGSLRLSCAASGFTFSSYAMSWVRQAPGKGLEWVSTISTGGGYTYSPDSVKGRFTISRDNSKNTLYLQMNSLRAEDTAVYYCARQGDFGDWYFDVWGAGTTVTVSS
VL: DVVMTQSPLSLPVTLGQPASISCRSSESLVHTNGNTYLHWYQQRPGQSPRLLIYKVSNRFSGVPDRFSGSGSGTDFTLKISRVEAEDVGVYFCSQSTRVPWTFGGGTKLEIK
With B5, the “fold improvement in affinity (reference not given)” value in assay [4] was found to be 40 fold. In assay [2], this molecule registered a Kd of 2 nM.

B6: APE1051 (antibody, V domains shown)
VH: EVQLLESGGGLVQPGGSLRLSCVASGFTFSSYAMSWVRQAPGKGLEWVSTISTGGGYTYFPDSVKGRFTISRDNSKNTLYLQMNSLRAEDTAVYYCARQGDFGDWYFDVWGAGTTVTVSS
VL: DVVMTQSPLSLPVTLGQPASISCRSSQSLVHSNGNTYLHWYQQRPGQSPRLLIYKVSNRFSGVPDRFSGSGSGTDFTLKISRVEAEDVGVYFCSQSTHVPWTFGGGTKLEIK
Consider B6, for which the Kd in assay [2] worked out at 15.1 nM.

B7: APE1052 (antibody, V domains shown)
VH: EVQLLESGGGLVQPGGSLRLSCAASGFTFSSYAMSWVRQAPGKGLEWVSTISTGGGYTYFPDSVKGRFTISRDNSKNTLYLQMNSLRAEDTAVYYCARQGDFGDWYFDVWGAGTTVTVSS
VL: DVVMTQSPLSLPVTLGQPASISCRSSESLVHTNGNTYLHWYQQRPGQSPRLLIYKVSNRFSGVPDRFSGSGSGTDFTLKISRVEAEDVGVYFCSQSTRVPWTFGGGTKLEIK
Regarding B7, in assay [4], the “fold improvement in KD over the initial grafted antibody (APE443)” value is 20 fold. Also, the Kd in assay [2] was 4.2 nM.

B8: APE556 (antibody, V domains shown)
VH: EVQLLESGGGLVQPGGSLRLSCAASGFTFSSYAMSWVRQAPGKGLEWVSTISTGGGYTYFPDSVKGRFTISRDNSKNTLYLQMNSLRAEDTAVYYCARQGDFGDWYFDVWGAGTTVTVSS
VL: DVVMTQSPLSLPVTLGQPASISCRSSQSLVHSNGNTYLHWYQQRPGQSPRLLIYKVSNRFSGVPDRFSGSGSGTDFTLKISRVEAEDVGVYFCSQSTHVPWTFGGGTKLEIK
In assay [5], B8 returned a koff of 0.0055 s⁻¹ and a kon of 210000 M⁻¹ s⁻¹. Besides, in assay [2], binding was put at a Kd of 27 nM.

B9: APE830 (antibody, V domains shown)
VH: EVQLLESGGGLVQPGGSLRLSCVASGFTFSSYAMSWVRQAPGKGLEWVSTISTGGGYTYFPDSVKGRFTISRDNSKNTLYLQMNSLRAEDTAVYYCARQGDFGDWYFDVWGAGTTVTVSS
VL: DVVMTQSPLSLPVTLGQPASISCRSSESLVHTNGNTYLHWYQQRPGQSPRLLIYKVSNRFSGVPDRFSGSGSGTDFTLKISRVEAEDVGVYFCSQSTRVPWTFGGGTKLEIK
For the molecule B9, in assay [2], the Kd is 1.6 nM.

B10: mouse anti-MS2 scFv (scFv)
scFv: EVKLVESGGGLVKPGGSLKLSCAASGFTFSSYAMSWVRQTPEKRLEWVATISTGGGYTYFPDSVKGRFTISRDNAKNALYLQMKSLRSEDTAMYYCARQGDFGDWYFDVWGAGTTVTVSSGGGGSGGGGSGGGGSDVLMTQTPLSLPVSLGDQASISCRSSQSLVHSNGNTYLHWYLQKPGQSPKLLIYKVSNRFSGVPDRFSGSGSGTDFTLKISRVEAEDLGVYFCSQSTHVPWTFGGGTKLEIK
B10: in assay [6], the koff amounted to 0.008 s⁻¹ and the kon was determined as 280000 M⁻¹ s⁻¹. This molecule also gave a Kd in assay [7] of 29 nM.
